Measurements from publication PMC8189185 (Structure (London, England : 1993), 2017).

Target: the molecule itself
Assay: cryo-EM structure

B1: PilA, major pilin subunit of the Pseudomonas aeruginosa strain K (PaK) Type IV pilus (natural protein)
chain: FTLIELMIVVAIIGILAAIAIPQYQNYVARSEGASALASVNPLKTTVEEALSRGWSVKSGTGTEDATKKEVPLGVAADANKLGTIALKPDPADGTADITLTFTMGGAGPKNKGKIITLTRTAADGLWKCTSDQDEQFIPKGCSR
- binding result: binds
